Experimental data from patent US8410061.

Key:
[1] = target: Myc-tagged patched-1 on transiently transfected human embryonic kidney 293 (EBNA-293) cells; test: FACS competition with Shh-Ig (5 nM) on 293 cells transfected with Myc-tagged patched-1
[2] = target: patched-1 of C3H10T1/2 cells (endogenous hedgehog receptor) (mouse (cell line C3H10T1/2 is stated to be mouse)) (UniProt Q61115); test: cell-based or functional assay
patched-1 of C3H10T1/2 cells (endogenous hedgehog receptor) (mouse (cell line C3H10T1/2 is stated to be mouse)), sequence (Q61115 whole entry): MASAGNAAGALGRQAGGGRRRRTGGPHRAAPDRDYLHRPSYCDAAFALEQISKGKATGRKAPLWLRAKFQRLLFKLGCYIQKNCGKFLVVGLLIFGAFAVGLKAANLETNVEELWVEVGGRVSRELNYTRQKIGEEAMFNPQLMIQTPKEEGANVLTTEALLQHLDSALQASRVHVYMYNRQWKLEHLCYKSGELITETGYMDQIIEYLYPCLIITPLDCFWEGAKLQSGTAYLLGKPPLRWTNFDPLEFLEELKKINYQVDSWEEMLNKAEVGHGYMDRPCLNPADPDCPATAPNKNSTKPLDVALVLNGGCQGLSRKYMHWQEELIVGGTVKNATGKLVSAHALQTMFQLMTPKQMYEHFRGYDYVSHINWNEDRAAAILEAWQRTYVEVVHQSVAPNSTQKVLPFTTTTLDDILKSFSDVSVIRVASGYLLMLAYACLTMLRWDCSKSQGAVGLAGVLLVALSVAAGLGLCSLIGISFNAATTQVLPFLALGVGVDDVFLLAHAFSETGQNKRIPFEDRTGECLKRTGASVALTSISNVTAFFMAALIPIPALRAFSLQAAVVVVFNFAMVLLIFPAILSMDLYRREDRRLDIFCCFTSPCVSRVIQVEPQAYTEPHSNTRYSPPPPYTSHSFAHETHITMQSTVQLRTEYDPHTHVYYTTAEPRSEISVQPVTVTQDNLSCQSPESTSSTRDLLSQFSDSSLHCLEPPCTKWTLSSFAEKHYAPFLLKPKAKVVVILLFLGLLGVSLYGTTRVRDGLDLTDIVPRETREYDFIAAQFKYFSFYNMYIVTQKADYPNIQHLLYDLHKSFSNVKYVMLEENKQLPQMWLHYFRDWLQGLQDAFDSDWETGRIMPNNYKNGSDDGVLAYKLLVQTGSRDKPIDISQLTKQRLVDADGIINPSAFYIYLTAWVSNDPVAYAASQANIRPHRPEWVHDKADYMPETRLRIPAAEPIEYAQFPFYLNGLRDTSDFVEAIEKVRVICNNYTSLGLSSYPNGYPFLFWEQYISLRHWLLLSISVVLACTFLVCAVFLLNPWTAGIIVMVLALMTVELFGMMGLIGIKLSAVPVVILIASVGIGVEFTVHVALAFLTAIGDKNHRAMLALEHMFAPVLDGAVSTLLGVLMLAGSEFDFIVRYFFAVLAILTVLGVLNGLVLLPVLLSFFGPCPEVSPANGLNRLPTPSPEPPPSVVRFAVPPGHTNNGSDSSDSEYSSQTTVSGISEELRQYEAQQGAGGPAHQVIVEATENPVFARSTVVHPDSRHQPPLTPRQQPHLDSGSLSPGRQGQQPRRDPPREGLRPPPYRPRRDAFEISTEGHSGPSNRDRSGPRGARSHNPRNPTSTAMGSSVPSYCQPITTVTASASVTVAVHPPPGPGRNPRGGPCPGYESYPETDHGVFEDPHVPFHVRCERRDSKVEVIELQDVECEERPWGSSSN

Myc-tagged patched-1 on transiently transfected human embryonic kidney 293 (EBNA-293) cells, sequence (Q61115 whole entry): as above

Substance | IC50 [1] | block of AP activity induced by mature Shh in C3H10T1/2 cells, IC50 [2] | also measured
Shh (N-5), Sonic hedgehog variant lacking residues CGPGR from the N-terminus (from UniProt Q15465 29-197) (ligand) |  | 80 nM | 
Shh (N-10), Sonic hedgehog variant lacking the first 10 N-terminal amino acids (from UniProt Q15465 34-197) (ligand) |  |  | block of AP induction by mature Shh (2.5 ug/ml) in C3H10T1/2 cells, IC50 [2]: 250 nM

The next lines start with results.

IC50 [1] | block of AP activity induced by mature Shh in C3H10T1/2 cells, IC50 [2] | Substance | also measured
1 nM |  | Shh (C1S), Sonic hedgehog N-terminal domain with the N-terminal cysteine replaced by serine (from UniProt Q15465 25-197) (ligand) | block of AP induction by human Shh in C3H10T1/2 cells, IC50 [2]: 500000 nM
 | 80 nM | Shh (N-9/C-3), Sonic hedgehog variant lacking … from the N-terminus and SGG from the C-terminus (from UniProt Q15465 33-194) (ligand) | 
3.5 nM |  | human mature Sonic hedgehog N-terminal domain (from UniProt Q15465 24-197) (ligand) | 
